# Assay results taken from paper PMC7494283 (Cell, 2020).
# Target: SARS-CoV RBD (SARS-CoV (human), isolate , UniProt P59594)
# Experiment: ELISA
row,Binder,binding result
1,"S304 mAb (IgG1) (antibody, V domains shown) VH: EVQLVESGGGLVQPGGSLRLSCAASGFTFSSYDMHWVRQTTGKGLEWVSTIGTAGDTYYPDSVKGRFTISREDAKNSLYLQMNSLRAGDTAVYYCARGDSSGYYYYFDYWGQGTLLTVSS VL: DIEMTQSPSSLSAAVGDRVTITCRASQSIGSYLNWYQQKPGKAPKLLIYAASSLQSGVPSRFSGSGSGTDFTLTISSLQPEDFAIYYCQQSYVSPTYTFGPGTKVDIK",binds
2,"S2H14 mAb (IgG1) (antibody, V domains shown) VH: not shown VL: NFMLTQPHSVSESPGKTVTISCTRSSGSIASNYVQWYQQRPGSSPTTVIYEDNQRPSGVPDRFSGSIDSSSNSASLTISGLKTEDEADYYCQSYDSSNQVFGGGTKLTVL",no binding
3,"S2A4 mAb (IgG1) (antibody, V domains shown) VH: EVQLVESGGGLVQPGGSLRLSCAASGFTFSSYWMNWVRQAPGKGLEWVANIKQDGSEKYYVDSVKGRFTISRDNAKNSLFLQMNSLRAEDTAVYYCARVWWLRGSFDYWGQGTLVTVSS VL: NFMLTQPHSVSESPGKTVTISCTGSSGSIASNYVQWYQQRPGSAPTTVIYEDNQRPSGVPDRFSGSIDSSSNSASLTISGLKTEDEADYYCQSYDSSNHVVFGGGTKLTVL",no binding
